Binding signal (PBM E-score (-0.5 to 0.5)) data for 42 sequences are collected here from PMC4434323.

For data set [1], the system named is T1, slr-2 (Y59A8B.13) (Caenorhabditis elegans).
T1 sequence: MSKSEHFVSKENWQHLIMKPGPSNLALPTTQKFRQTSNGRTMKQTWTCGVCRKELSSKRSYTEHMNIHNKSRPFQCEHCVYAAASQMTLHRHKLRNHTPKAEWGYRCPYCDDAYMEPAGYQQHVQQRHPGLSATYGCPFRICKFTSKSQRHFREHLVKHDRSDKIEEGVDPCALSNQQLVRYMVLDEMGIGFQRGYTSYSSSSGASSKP

In data set [2] the target is T2, ceh-26 (K12H4.1) (Caenorhabditis elegans) (UniProt P34522).
T2 sequence: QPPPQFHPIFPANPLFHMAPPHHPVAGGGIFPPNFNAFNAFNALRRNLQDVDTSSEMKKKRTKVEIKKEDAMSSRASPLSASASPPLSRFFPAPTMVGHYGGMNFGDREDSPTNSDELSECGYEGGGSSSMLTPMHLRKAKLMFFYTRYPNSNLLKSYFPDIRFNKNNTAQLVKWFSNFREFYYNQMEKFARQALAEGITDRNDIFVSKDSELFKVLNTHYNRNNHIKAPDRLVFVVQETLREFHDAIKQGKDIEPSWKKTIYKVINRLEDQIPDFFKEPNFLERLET

The target in data set [3] is T3, nhr-70 (Y51A2D.17) (Caenorhabditis elegans) (UniProt G5EEL3).
T3 sequence: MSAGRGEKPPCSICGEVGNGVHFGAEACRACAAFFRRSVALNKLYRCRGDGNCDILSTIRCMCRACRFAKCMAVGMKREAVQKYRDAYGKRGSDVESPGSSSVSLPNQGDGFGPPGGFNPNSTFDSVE

For data set [4], the target named is T4, nhr-66 (T09A12.4) (Caenorhabditis elegans) (UniProt H2KYJ8).
T4 sequence: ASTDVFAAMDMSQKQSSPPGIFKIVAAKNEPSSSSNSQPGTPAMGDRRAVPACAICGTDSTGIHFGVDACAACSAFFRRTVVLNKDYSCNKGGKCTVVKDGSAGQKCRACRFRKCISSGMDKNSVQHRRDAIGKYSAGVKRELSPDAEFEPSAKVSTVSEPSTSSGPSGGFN

The target of data set [5] is T5, Y61A9LA.9 (Y61A9LA.9) (Caenorhabditis elegans) (UniProt Q9N312).
T5 sequence: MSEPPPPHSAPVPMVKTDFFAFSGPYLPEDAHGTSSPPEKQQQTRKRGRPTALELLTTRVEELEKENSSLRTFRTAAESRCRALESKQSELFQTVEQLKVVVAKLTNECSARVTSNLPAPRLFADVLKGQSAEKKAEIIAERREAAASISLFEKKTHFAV

Data set [6] has as its target T6, ceh-23 (ZK652.5) (Caenorhabditis elegans) (UniProt P34663).
T6 sequence: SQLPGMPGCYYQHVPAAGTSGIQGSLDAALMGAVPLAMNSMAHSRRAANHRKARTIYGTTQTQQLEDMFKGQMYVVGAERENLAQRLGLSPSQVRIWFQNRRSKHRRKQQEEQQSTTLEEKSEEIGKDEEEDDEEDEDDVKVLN

Data set [7] has as its target T7, eyg-1 (Y53C12C.1) (Caenorhabditis elegans) (UniProt O01996).
T7 sequence: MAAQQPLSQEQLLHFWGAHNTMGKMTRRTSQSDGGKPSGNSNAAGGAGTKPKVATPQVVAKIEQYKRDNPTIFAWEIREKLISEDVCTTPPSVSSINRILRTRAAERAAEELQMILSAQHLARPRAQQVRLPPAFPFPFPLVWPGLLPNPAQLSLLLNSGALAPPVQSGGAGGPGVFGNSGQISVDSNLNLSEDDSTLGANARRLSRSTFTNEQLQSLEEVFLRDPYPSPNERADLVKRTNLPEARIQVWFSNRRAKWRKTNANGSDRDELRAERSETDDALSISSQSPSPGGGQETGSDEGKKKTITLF

In data set [8] the target is sptf-3 (Y40B1A.4) (Caenorhabditis elegans) (UniProt Q9XW26).
Chain of sptf-3 (Y40B1A.4) (Caenorhabditis elegans) (Q9XW26 266-412): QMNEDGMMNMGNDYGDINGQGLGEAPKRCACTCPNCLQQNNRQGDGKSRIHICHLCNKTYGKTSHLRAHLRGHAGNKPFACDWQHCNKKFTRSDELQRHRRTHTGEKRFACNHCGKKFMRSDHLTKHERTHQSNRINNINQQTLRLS
Data set [9] deals with T8, ZK337.2 (ZK337.2) (Caenorhabditis elegans) (UniProt O46016).
T8 sequence: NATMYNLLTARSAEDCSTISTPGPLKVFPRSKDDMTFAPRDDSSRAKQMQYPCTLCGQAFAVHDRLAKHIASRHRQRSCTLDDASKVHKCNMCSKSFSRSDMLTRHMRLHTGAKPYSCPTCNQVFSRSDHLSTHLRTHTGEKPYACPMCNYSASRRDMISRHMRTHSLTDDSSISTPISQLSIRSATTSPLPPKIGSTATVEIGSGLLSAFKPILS

In data set [10] the target is egrh-1 (C27C12.2) (Caenorhabditis elegans) (UniProt Q18250).
Chain of egrh-1 (C27C12.2) (Caenorhabditis elegans) (Q18250 324-461): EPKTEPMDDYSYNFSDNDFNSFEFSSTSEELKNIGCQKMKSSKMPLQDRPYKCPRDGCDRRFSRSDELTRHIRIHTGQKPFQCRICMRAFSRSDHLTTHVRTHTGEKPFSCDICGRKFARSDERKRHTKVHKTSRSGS
In data set [11] the target is klf-3 (F54H5.4) (Caenorhabditis elegans) (UniProt Q65ZG6).
Chain of klf-3 (F54H5.4) (Caenorhabditis elegans) (Q65ZG6 180-315): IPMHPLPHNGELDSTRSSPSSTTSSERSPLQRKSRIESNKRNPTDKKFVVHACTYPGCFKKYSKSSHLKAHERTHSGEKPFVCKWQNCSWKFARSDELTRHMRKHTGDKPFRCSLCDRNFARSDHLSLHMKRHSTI
The target of data set [12] is ZC328.2 (ZC328.2) (Caenorhabditis elegans) (UniProt O02050).
Chain of ZC328.2 (ZC328.2) (Caenorhabditis elegans) (O02050 entry or part of it): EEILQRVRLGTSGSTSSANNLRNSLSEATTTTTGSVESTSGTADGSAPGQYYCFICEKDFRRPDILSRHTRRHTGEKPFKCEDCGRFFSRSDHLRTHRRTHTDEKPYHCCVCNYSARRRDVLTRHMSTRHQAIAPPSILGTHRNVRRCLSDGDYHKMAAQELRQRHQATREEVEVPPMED
The target of data set [13] is T9, odr-7 (T18D3.2) (Caenorhabditis elegans) (UniProt P41933).
T9 sequence: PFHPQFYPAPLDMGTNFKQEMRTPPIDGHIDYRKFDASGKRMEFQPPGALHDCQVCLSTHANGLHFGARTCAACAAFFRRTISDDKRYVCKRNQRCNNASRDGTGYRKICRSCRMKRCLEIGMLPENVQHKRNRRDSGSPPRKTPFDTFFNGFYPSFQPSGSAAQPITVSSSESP

Data set [14] deals with T10, let-381 (F26B1.7) (Caenorhabditis elegans) (UniProt P91278).
T10 sequence: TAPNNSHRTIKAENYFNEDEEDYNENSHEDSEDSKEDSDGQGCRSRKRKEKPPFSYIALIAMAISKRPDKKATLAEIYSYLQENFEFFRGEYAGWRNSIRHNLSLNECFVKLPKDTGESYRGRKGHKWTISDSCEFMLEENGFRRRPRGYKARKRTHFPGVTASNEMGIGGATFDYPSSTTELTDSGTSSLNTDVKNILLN

Data set [15] addresses T11, die-1 (C18D1.1) (Caenorhabditis elegans) (UniProt A0A131MCR4).
T11 sequence: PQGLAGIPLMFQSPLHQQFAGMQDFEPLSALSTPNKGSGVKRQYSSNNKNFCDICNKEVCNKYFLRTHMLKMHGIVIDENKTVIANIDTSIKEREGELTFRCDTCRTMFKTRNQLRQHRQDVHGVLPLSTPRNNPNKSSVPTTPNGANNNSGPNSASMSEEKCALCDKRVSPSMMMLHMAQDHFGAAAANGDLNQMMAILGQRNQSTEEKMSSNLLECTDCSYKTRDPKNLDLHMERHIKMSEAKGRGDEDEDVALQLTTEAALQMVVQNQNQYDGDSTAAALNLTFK

Take “AAACTGCA (double strand) [8-mer AAACTGCA]”: the binding signal (PBM E-score (-0.5 to 0.5)) in data set [1] was determined as 0.475.

As to “AACATCTT (double strand) [8-mer AACATCTT]”, the binding signal (PBM E-score (-0.5 to 0.5)) in [2] is 0.457.

“AACGTCTT (double strand) [8-mer AACGTCTT]” returned a binding signal (PBM E-score (-0.5 to 0.5)) in data set [2] of 0.48.

On to “AACTACAA (double strand) [8-mer AACTACAA]”, for which the figures for the binding signal (PBM E-score (-0.5 to 0.5)) in data set [3], in data set [1] and in [4] were 0.487, 0.492 and 0.489, respectively.

In data set [1], “AACTGCAA (double strand) [8-mer AACTGCAA]” yielded a binding signal (PBM E-score (-0.5 to 0.5)) of 0.495.

“AAGAAAGT (double strand) [8-mer AAGAAAGT]” returned a binding signal (PBM E-score (-0.5 to 0.5)) in data set [2] of 0.456.

As to “AAGACATT (double strand) [8-mer AAGACATT]”, the binding signal (PBM E-score (-0.5 to 0.5)) in [2] was 0.458.

As to “AAGATCTT (double strand) [8-mer AAGATCTT]”, in [2], the binding signal (PBM E-score (-0.5 to 0.5)) was found to be 0.457.

Regarding “AATTAATT (double strand) [8-mer AATTAATT]”, the binding signal (PBM E-score (-0.5 to 0.5)) was determined as 0.454 in data set [5], 0.492 in data set [6] and 0.489 in [7].

In data set [8], “ACCGCCCC (double strand) [8-mer ACCGCCCC]” had a binding signal (PBM E-score (-0.5 to 0.5)) of 0.476.

“ACGCCCAC (double strand) [8-mer ACGCCCAC]”: the binding signal (PBM E-score (-0.5 to 0.5)) in [9] came to 0.492; in data set [10], 0.494; in [11], 0.48; in data set [8] it was 0.454.

As to “ACGCCCCC (double strand) [8-mer ACGCCCCC]”, the binding signal (PBM E-score (-0.5 to 0.5)) turned out to be 0.495 in [9], 0.486 in data set [12], 0.495 in data set [10] and 0.49 in data set [8].

Consider “ACGCCCCT (double strand) [8-mer ACGCCCCT]”, for which the binding signal (PBM E-score (-0.5 to 0.5)) in data set [8] is 0.452.

Regarding “ACTACAAA (double strand) [8-mer ACTACAAA]”, the binding signal (PBM E-score (-0.5 to 0.5)) in data set [3] is 0.493; in data set [1], 0.452; in data set [13], 0.491; in data set [4], 0.492.

“ACTGCAAA (double strand) [8-mer ACTGCAAA]” displayed a binding signal (PBM E-score (-0.5 to 0.5)) in data set [1] of 0.487.

“AGACTGCA (double strand) [8-mer AGACTGCA]” had a binding signal (PBM E-score (-0.5 to 0.5)) in [1] of 0.469.

Turning to “AGGGGCGG (double strand) [8-mer AGGGGCGG]”, the binding signal (PBM E-score (-0.5 to 0.5)) in data set [8] came out at 0.494.

“ATAAACAT (double strand) [8-mer ATAAACAT]” showed a binding signal (PBM E-score (-0.5 to 0.5)) in [14] of 0.473.

With “ATGGGCGG (double strand) [8-mer ATGGGCGG]”, the binding signal (PBM E-score (-0.5 to 0.5)) in data set [8] worked out at 0.456.

As for “ATGTTTAC (double strand) [8-mer ATGTTTAC]”, the binding signal (PBM E-score (-0.5 to 0.5)) in data set [14] came out at 0.455.

Turning to “ATTGTTTA (double strand) [8-mer ATTGTTTA]”, in data set [14], the binding signal (PBM E-score (-0.5 to 0.5)) was 0.467.

Take “ATTTAAAT (double strand) [8-mer ATTTAAAT]”: the binding signal (PBM E-score (-0.5 to 0.5)) in [15] stood at 0.477; in data set [5], 0.47.

In data set [2], “CAAGAAAA (double strand) [8-mer CAAGAAAA]” gave a binding signal (PBM E-score (-0.5 to 0.5)) of 0.469.

Consider “CACGCCCC (double strand) [8-mer CACGCCCC]”, for which the binding signal (PBM E-score (-0.5 to 0.5)) in data set [8] turned out to be 0.473.

In the case of “CCAAGAAA (double strand) [8-mer CCAAGAAA]”, the binding signal (PBM E-score (-0.5 to 0.5)) in data set [2] amounted to 0.472.

For “CCGCCCAC (double strand) [8-mer CCGCCCAC]”, the binding signal (PBM E-score (-0.5 to 0.5)) was determined as 0.494 in data set [9], 0.489 in data set [12], 0.494 in data set [10] and 0.489 in [8].

“CGAAGAAA (double strand) [8-mer CGAAGAAA]” had a binding signal (PBM E-score (-0.5 to 0.5)) in [2] of 0.453.

Take “CGTCTTGA (double strand) [8-mer CGTCTTGA]”: the binding signal (PBM E-score (-0.5 to 0.5)) in data set [2] came to 0.454.

Sequence “CTCCGCCC (double strand) [8-mer CTCCGCCC]” registered a binding signal (PBM E-score (-0.5 to 0.5)) in data set [8] of 0.451.

“GAACTACA (double strand) [8-mer GAACTACA]” yielded a binding signal (PBM E-score (-0.5 to 0.5)) in data set [1] of 0.459.

Sequence “GAACTGCA (double strand) [8-mer GAACTGCA]” showed a binding signal (PBM E-score (-0.5 to 0.5)) in [1] of 0.494.

Regarding “GACTACAA (double strand) [8-mer GACTACAA]”, the binding signal (PBM E-score (-0.5 to 0.5)) in [3] amounted to 0.495; in data set [1] it was 0.468; in data set [13] it was 0.476; in data set [4] it was 0.488.

For the sequence “GACTGCAA (double strand) [8-mer GACTGCAA]”, in [1], the binding signal (PBM E-score (-0.5 to 0.5)) came to 0.491.

“GGACTGCA (double strand) [8-mer GGACTGCA]”: the binding signal (PBM E-score (-0.5 to 0.5)) in [1] came out at 0.476.

As to “GGGGCGGA (double strand) [8-mer GGGGCGGA]”, the binding signal (PBM E-score (-0.5 to 0.5)) in data set [8] amounted to 0.475.

The sequence “GGGGCGTA (double strand) [8-mer GGGGCGTA]” displayed a binding signal (PBM E-score (-0.5 to 0.5)) in [8] of 0.462.

The sequence “GTAAACAC (double strand) [8-mer GTAAACAC]” had a binding signal (PBM E-score (-0.5 to 0.5)) in data set [14] of 0.452.

In data set [14], “GTTTATAA (double strand) [8-mer GTTTATAA]” yielded a binding signal (PBM E-score (-0.5 to 0.5)) of 0.459.

On to “TATAAACA (double strand) [8-mer TATAAACA]”, for which, in [14], the binding signal (PBM E-score (-0.5 to 0.5)) was found to be 0.483.

Regarding “TCAAGAAA (double strand) [8-mer TCAAGAAA]”, the binding signal (PBM E-score (-0.5 to 0.5)) in data set [2] turned out to be 0.462.

As for “TCTTAAGA (double strand) [8-mer TCTTAAGA]”, in [2], the binding signal (PBM E-score (-0.5 to 0.5)) stood at 0.482.

Turning to “TGAAGAAA (double strand) [8-mer TGAAGAAA]”, the binding signal (PBM E-score (-0.5 to 0.5)) in [2] is 0.453.
